# Experimental data: PMC9482650, “Quantitative fragmentomics allow affinity mapping of interactomes” (Nature Communications, 2022)
# T1: NHERF3_4, Q5T2W1
# T1 sequence (Q5T2W1 373-468, limits assumed, looked up): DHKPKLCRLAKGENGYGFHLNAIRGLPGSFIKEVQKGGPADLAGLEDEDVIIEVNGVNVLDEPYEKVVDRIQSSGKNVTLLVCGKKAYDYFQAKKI
# T2: SNTG2, Q9NY99
# T2 sequence (Q9NY99 68-166, limits assumed, looked up): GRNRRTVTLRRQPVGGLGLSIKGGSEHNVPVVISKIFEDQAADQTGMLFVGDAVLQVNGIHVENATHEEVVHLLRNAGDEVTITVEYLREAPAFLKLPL
# T3: PARD3B_1, Q8TEW8
# T3 sequence (Q8TEW8 196-299, limits assumed, looked up): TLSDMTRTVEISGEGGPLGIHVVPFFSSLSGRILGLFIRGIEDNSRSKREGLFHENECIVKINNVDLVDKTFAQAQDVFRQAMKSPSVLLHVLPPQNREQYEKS
# T4: HTRA4, P83105
# T4 sequence (P83105 378-476, limits assumed, looked up): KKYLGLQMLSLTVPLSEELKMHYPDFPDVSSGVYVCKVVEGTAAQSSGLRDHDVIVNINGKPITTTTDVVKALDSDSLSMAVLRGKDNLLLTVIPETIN
# T5: LIN7A, O14910
# T5 sequence (O14910 103-200, limits assumed, looked up): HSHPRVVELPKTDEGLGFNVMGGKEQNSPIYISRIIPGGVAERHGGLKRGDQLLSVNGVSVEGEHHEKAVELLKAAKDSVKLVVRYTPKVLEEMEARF
# T6: PDZRN3_1, Q9UPQ7
# T6 sequence (Q9UPQ7 244-349, limits assumed, looked up): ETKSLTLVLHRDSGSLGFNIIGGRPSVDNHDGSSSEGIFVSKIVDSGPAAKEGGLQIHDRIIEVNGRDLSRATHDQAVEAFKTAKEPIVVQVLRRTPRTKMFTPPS
# T7: DLG3_2, Q92796
# T7 sequence (Q92796 221-321, limits assumed, looked up): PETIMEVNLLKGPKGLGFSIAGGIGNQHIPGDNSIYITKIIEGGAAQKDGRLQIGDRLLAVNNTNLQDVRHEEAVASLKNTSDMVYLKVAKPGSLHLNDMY
# T8: SNTG1, Q9NSN8
# T8 sequence (Q9NSN8 52-150, limits assumed, looked up): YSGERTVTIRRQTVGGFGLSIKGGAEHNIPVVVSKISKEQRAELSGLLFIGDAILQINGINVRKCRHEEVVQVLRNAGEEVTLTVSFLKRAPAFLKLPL
# T9: RAPGEF6, Q8TEU7
# T9 sequence (Q8TEU7 525-625, limits assumed, looked up): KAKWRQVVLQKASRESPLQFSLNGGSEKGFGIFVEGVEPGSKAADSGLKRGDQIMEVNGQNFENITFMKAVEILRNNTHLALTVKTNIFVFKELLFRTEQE
# T10: MPP7, Q5T2T1
# T10 sequence (Q5T2T1 134-230, limits assumed, looked up): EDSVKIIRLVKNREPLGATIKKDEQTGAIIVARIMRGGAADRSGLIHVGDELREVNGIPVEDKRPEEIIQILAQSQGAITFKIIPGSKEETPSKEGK
# Tests used:
# Assay in all cases: holdup assay
# Parameters in all cases: key: below the threshold = too weak to quantify, mostly under pKd 3.1 to 4
# Conditions in all cases: plain residues with an end cap or a label only (N-terminal biotin on a linker: gsgsgs; C-terminal amide)
# PICK1, Q9NRD5 = target: PICK1, Q9NRD5
# Sequence of PICK1, Q9NRD5 (Q9NRD5 17-115): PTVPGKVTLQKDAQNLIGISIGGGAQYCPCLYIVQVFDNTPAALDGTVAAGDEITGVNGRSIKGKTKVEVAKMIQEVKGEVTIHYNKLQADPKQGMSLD
# NHERF3_4, Q5T2W1 = target: T1, NHERF3_4, Q5T2W1
# Inadl_9, Q8NI35 = target: Inadl_9, Q8NI35
# Sequence of Inadl_9, Q8NI35 (Q8NI35 1530-1615): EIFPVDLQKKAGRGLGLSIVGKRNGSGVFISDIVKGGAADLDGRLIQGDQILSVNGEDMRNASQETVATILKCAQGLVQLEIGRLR
# SNTG2, Q9NY99 = target: T2, SNTG2, Q9NY99
# PARD3B_1, Q8TEW8 = target: T3, PARD3B_1, Q8TEW8
# HTRA4, P83105 = target: T4, HTRA4, P83105
# MAGI1_2, Q96QZ7 = target: MAGI1_2, Q96QZ7
# Sequence of MAGI1_2, Q96QZ7 (Q96QZ7 456-580): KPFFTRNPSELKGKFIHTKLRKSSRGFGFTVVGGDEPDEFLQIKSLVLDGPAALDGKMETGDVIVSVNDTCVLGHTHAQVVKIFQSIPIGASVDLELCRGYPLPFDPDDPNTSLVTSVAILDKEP
# LIN7A, O14910 = target: T5, LIN7A, O14910
# PDZRN3_1, Q9UPQ7 = target: T6, PDZRN3_1, Q9UPQ7
# SCRIB_3, Q14160 = target: SCRIB_3, Q14160
# Sequence of SCRIB_3, Q14160 (Q14160 999-1103): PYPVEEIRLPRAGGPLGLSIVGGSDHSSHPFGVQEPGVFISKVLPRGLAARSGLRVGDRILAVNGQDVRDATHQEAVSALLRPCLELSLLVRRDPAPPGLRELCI
# DLG4_1, P78352 = target: DLG4_1, P78352
# Sequence of DLG4_1, P78352 (P78352 62-152): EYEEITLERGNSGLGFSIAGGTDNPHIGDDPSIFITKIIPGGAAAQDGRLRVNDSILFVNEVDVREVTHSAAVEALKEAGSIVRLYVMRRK
# MAGI2_5, Q86UL8 = target: MAGI2_5, Q86UL8
# Sequence of MAGI2_5, Q86UL8 (Q86UL8 915-1017): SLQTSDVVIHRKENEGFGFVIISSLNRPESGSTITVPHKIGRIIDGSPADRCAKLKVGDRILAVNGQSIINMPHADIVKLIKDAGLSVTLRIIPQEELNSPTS
# HTRA1, Q92743 = target: HTRA1, Q92743
# Sequence of HTRA1, Q92743 (Q92743 360-477): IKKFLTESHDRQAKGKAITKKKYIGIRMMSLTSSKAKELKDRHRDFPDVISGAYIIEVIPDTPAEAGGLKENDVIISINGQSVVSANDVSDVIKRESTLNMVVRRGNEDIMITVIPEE
# MAGI2_3, Q86UL8 = target: MAGI2_3, Q86UL8
# Sequence of MAGI2_3, Q86UL8 (Q86UL8 600-682): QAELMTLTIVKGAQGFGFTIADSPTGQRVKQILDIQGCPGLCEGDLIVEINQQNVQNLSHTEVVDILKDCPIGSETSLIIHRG
# DLG3_2, Q92796 = target: T7, DLG3_2, Q92796
# SNTG1, Q9NSN8 = target: T8, SNTG1, Q9NSN8
# GRIP2_7, Q9C0E4 = target: GRIP2_7, Q9C0E4
# Sequence of GRIP2_7, Q9C0E4 (Q9C0E4 934-1023): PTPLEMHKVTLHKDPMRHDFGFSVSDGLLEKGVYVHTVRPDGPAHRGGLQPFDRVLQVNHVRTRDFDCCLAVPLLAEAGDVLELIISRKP
# Inadl_3, Q8NI35 = target: Inadl_3, Q8NI35
# Sequence of Inadl_3, Q8NI35 (Q8NI35 359-469): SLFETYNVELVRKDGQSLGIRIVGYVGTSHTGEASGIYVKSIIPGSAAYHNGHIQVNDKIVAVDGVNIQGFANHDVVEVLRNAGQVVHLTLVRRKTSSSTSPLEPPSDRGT
# IL16_3, Q14005 = target: IL16_3, Q14005
# Sequence of IL16_3, Q14005 (Q14005 1107-1207): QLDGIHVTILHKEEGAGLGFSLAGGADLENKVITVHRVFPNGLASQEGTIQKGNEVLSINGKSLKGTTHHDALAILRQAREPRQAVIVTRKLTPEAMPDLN
# NHERF2_2, Q15599 = target: NHERF2_2, Q15599
# Sequence of NHERF2_2, Q15599 (Q15599 142-238): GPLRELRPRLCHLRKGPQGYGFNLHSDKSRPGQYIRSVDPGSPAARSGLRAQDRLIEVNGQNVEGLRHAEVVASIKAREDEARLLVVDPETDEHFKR
# RAPGEF6, Q8TEU7 = target: T9, RAPGEF6, Q8TEU7
# FRMPD4, Q14CM0 = target: FRMPD4, Q14CM0
# Sequence of FRMPD4, Q14CM0 (Q14CM0 67-160): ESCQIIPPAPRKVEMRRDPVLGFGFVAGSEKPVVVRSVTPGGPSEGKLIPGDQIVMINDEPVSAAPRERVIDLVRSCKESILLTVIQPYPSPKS
# MPP7, Q5T2T1 = target: T10, MPP7, Q5T2T1
# LIMK2, P53671 = target: LIMK2, P53671
# Sequence of LIMK2, P53671 (P53671 143-248): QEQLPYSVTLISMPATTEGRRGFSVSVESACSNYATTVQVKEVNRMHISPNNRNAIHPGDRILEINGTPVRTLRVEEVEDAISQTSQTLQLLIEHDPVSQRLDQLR
# NHERF4_2, Q86UT5 = target: NHERF4_2, Q86UT5
# Sequence of NHERF4_2, Q86UT5 (Q86UT5 220-308): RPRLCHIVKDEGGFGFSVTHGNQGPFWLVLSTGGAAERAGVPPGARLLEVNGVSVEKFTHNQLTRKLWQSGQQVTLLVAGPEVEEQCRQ
# MAST1, Q9Y2H9 = target: MAST1, Q9Y2H9
# Sequence of MAST1, Q9Y2H9 (Q9Y2H9 962-1065): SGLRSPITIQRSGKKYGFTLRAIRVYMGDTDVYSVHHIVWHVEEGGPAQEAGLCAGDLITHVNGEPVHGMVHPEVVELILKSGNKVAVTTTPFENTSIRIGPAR
# LNX1_1, Q8TBB1 = target: LNX1_1, Q8TBB1
# Sequence of LNX1_1, Q8TBB1 (Q8TBB1 261-371): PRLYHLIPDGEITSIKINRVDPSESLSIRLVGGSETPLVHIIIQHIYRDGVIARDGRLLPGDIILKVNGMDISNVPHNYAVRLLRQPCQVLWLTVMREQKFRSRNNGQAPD
binder,measurement,setting,value
"VSVDDVRSTSQGLSSY [DFNB31_int, Q9P202]",pKd,"PICK1, Q9NRD5",below the threshold
same,pKd,"NHERF3_4, Q5T2W1",below the threshold
same,pKd,"Inadl_9, Q8NI35",below the threshold
same,pKd,"SNTG2, Q9NY99",below the threshold
same,pKd,"PARD3B_1, Q8TEW8",below the threshold
same,pKd,"HTRA4, P83105",below the threshold
same,pKd,"MAGI1_2, Q96QZ7",below the threshold
same,pKd,"LIN7A, O14910",below the threshold
same,pKd,"PDZRN3_1, Q9UPQ7",below the threshold
same,pKd,"SCRIB_3, Q14160",below the threshold
same,pKd,"DLG4_1, P78352",below the threshold
same,pKd,"MAGI2_5, Q86UL8",below the threshold
same,pKd,"HTRA1, Q92743",below the threshold
same,pKd,"MAGI2_3, Q86UL8",below the threshold
same,pKd,"DLG3_2, Q92796",4.12
same,pKd,"SNTG1, Q9NSN8",below the threshold
same,pKd,"GRIP2_7, Q9C0E4",below the threshold
same,pKd,"Inadl_3, Q8NI35",below the threshold
same,pKd,"IL16_3, Q14005",below the threshold
same,pKd,"NHERF2_2, Q15599",below the threshold
same,pKd,"RAPGEF6, Q8TEU7",below the threshold
same,pKd,"FRMPD4, Q14CM0",below the threshold
same,pKd,"MPP7, Q5T2T1",below the threshold
same,pKd,"LIMK2, P53671",below the threshold
same,pKd,"NHERF4_2, Q86UT5",below the threshold
same,pKd,"MAST1, Q9Y2H9",below the threshold
same,pKd,"LNX1_1, Q8TBB1",below the threshold
